From the supplement of paper PMC10598134
± gives the standard deviation.

Experiment: collision cross section of modified peptide (TIMS, N2, iRT-aligned); higher = larger / more extended gas-phase ion
How it was run: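 Collision cross section values rest on the Mason-Schamp equation applied to calibrated, run-aligned mobility data from synthetic peptides. Mobility (1/K0) was calibrated with three reference ions and aligned per run to the median iRT peptide deviation, and 1–3 technical replicates of the most abundant feature per charge state were averaged. Data came from a timsTOF Pro/HT in dda-PASEF mode (nitrogen, ~2.4 mbar) after a 120-min nanoflow C18 gradient at 60 °C.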

[1] = charge state: 2, modification: Acetyl (K)
[2] = charge state: 2, modification: Glutarylation
[3] = charge state: 3, modification: Propionyl
[4] = charge state: 2, modification: Methyl (K)
[5] = charge state: 3, modification: Methyl (K)
[6] = charge state: 2, modification: Propionyl
[7] = charge state: 2, modification: HexNAc (ST)
[8] = charge state: 2, modification: Formyl
[9] = charge state: 2, modification: Succinyl
[10] = charge state: 3, modification: Succinyl
[11] = charge state: 2, modification: GlyGly (K)
[12] = charge state: 3, modification: GlyGly (K)

For VNALKNLQVK [_VNALK(Acetyl (K))NLQVK_], the collision cross section [1] was 369.79 ± 0.48 Å².

For “IGNSYFKEEK [_IGNSYFK(Gluratylation)EEK_]”, the collision cross section [2] was 381.23 ± 0.61 Å².

Sequence “IHVQSSSDSSDEPAEKR [_IHVQSSSDSSDEPAEK(Propionyl)R_]” has a collision cross section [3] of 506.45 ± 1.4 Å².

Work on “GETASKLQSEISR [_GETASK(Methyl (K))LQSEISR_]” yielded a collision cross section [4] of 400.35 Å² and a collision cross section [5] of 463.3 ± 3.8 Å².

Work on “AAINQKLIETGER [_AAINQK(Propionyl)LIETGER_]” yielded a collision cross section [6] of 404.63 ± 0.38 Å².

LGPNDQYK [_LGPNDQY(Phospho (Y))K_] showed a collision cross section (charge state: 2, modification: Phospho (Y)) of 336.82 ± 0.067 Å².

Work on “AVAITQSPSSVR [_AVAIT(HexNAc (ST))QSPSSVR_]” yielded a collision cross section [7] of 390.4 ± 0.13 Å².

With “VDVEVPDVSLEGPEGKLK [_VDVEVPDVSLEGPEGK(Formyl)LK_]” the collision cross section [8] was 460.51 ± 1.4 Å².

“QGNAVTLGDYYQGR [_QGNAVT(HexNAc (ST))LGDYYQGR_]” gave a collision cross section [7] of 432.99 ± 0.62 Å².

For “ALASIDSKLNQAK [_ALASIDSK(Succinyl)LNQAK_]”, the collision cross section [9] was 408.18 ± 0.54 Å² and the collision cross section [10] was 477.06 Å².

“IQQELQTAKK [_IQQELQTAK(Gluratylation)K_]” gave a collision cross section [2] of 388.2 ± 0.52 Å² and a collision cross section (charge state: 3, modification: Glutarylation) of 444.75 Å².

LLEQKTQESQK [_LLEQK(Formyl)TQESQK_] showed a collision cross section [8] of 386.78 ± 0.55 Å².

For “KFGVLSDNFK [_K(Gluratylation)FGVLSDNFK_]”, the collision cross section [2] was 380.33 ± 0.73 Å².

In the case of “TLQKQSVVYGGK [_TLQK(GlyGly (K))QSVVYGGK_]”, the collision cross section [11] is reported as 403.57 ± 1.5 Å² and the collision cross section [12] is reported as 459.43 ± 2 Å².

“SGGRGVSVSSAR [_SGGR(Methyl (R))GVSVSSAR_]” showed a collision cross section (charge state: 2, modification: Methyl (R)) of 362.59 ± 13 Å² and a collision cross section (charge state: 3, modification: Methyl (R)) of 443.44 ± 0.81 Å².

In the case of “YSTSGSSGLTTGK [_Y(Nitro (Y))STSGSSGLTTGK_]”, the collision cross section (charge state: 2, modification: Nitro (Y)) is reported as 371.62 ± 0.55 Å².

Work on “AAINQKLIETGER [_AAINQK(Succinyl)LIETGER_]” yielded a collision cross section [9] of 409.41 ± 0.25 Å² and a collision cross section [10] of 475.95 ± 0.68 Å².

Sequence “GFALVGVGSEASSKK [_GFALVGVGSEASSK(Propionyl)K_]” has a collision cross section [6] of 411.51 Å².

Sequence “GERGFPGYPGPK [_GERGFP(Hydroxyproline)GYPGPK_]” has a collision cross section (charge state: 2, modification: Hydroxyproline) of 370.65 ± 1.8 Å².

“DAEAAEATAEGALKAEK [_DAEAAEATAEGALK(GlyGly (K))AEK_]” gave a collision cross section [11] of 475 ± 1.6 Å² and a collision cross section [12] of 538.51 ± 1.1 Å².

Sequence “SITHSTVGSKGEK [_SITHSTVGSK(Methyl (K))GEK_]” has a collision cross section [4] of 402.47 ± 1.2 Å² and a collision cross section [5] of 466.28 ± 2.9 Å².

For GAEKTEVAEPR [_GAEK(Malonyl)TEVAEPR_], the collision cross section (charge state: 2, modification: Malonyl) was 372.62 ± 0.63 Å².

“SSSAGGQGSYVPLLR [_SSS(HexNAc (ST))AGGQGSYVPLLR_]” showed a collision cross section [7] of 427.89 ± 0.57 Å².

For “ASNAAVKLAESK [_ASNAAVK(GlyGly (K))LAESK_]”, the collision cross section [11] was 395.25 ± 1.5 Å² and the collision cross section [12] was 457.62 ± 1.1 Å².

“AGQKLIDVNHYAK [_AGQK(Propionyl)LIDVNHYAK_]” gave a collision cross section [6] of 432.1 ± 1.1 Å² and a collision cross section [3] of 484.45 Å².

For ALLQAKASGK [_ALLQAK(Propionyl)ASGK_], the collision cross section [6] was 350.75 ± 0.49 Å².

In the case of “VGIDTPDIDIHGPEGKLK [_VGIDTPDIDIHGPEGK(Formyl)LK_]”, the collision cross section [8] is reported as 485.77 ± 1.5 Å² and the collision cross section (charge state: 3, modification: Formyl) is reported as 533.35 ± 1.3 Å².

Work on LGSPSGKTGTCR [_LGSPSGK(Succinyl)TGTCR_] yielded a collision cross section [9] of 368.12 ± 0.52 Å².

Work on “LGVATVAKGVCGACK [_LGVATVAK(Biotin)GVCGACK_]” yielded a collision cross section (charge state: 2, modification: Biotin) of 431.82 Å² and a collision cross section (charge state: 3, modification: Biotin) of 507.7 Å².

Work on “DYSAPVNFISAGLKK [_DYSAPVNFISAGLK(GlyGly (K))K_]” yielded a collision cross section [11] of 449.5 ± 1.6 Å² and a collision cross section [12] of 532.12 ± 1.1 Å².

“IHVQSSSDSSDEPAEKR [_IHVQSSSDSSDEPAEK(Acetyl (K))R_]” showed a collision cross section [1] of 446.96 ± 2.2 Å² and a collision cross section (charge state: 3, modification: Acetyl (K)) of 501.64 ± 1.1 Å².

Work on “DDSFLGKLGGTLAR [_DDSFLGK(Trimethyl (K))LGGTLAR_]” yielded a collision cross section (charge state: 2, modification: Trimethyl (K)) of 427.63 Å² and a collision cross section (charge state: 3, modification: Trimethyl (K)) of 472.67 ± 1.8 Å².

“ATVASSTQKFQDLGVK [_ATVASSTQK(hydroxyisobutyryl)FQDLGVK_]” gave a collision cross section (charge state: 2, modification: hydroxyisobutyryl) of 453.68 ± 1.4 Å² and a collision cross section (charge state: 3, modification: hydroxyisobutyryl) of 498.28 ± 1.6 Å².

In the case of “VGIDTPDIDIHGPEGKLK [_VGIDTPDIDIHGPEGK(Crotonyl)LK_]”, the collision cross section (charge state: 2, modification: Crotonyl) is reported as 496.91 Å² and the collision cross section (charge state: 3, modification: Crotonyl) is reported as 540.02 ± 1.3 Å².
